For assay [1], the target named is T1, PAM4 antigen (human pancreatic cancer mucin, CaPan1) (human).
T1 construct: Mucin preparation or cell extract from human pancreatic cancer (CaPan1 xenografts); coated on plates or captured by PAM4 in the immunoassays; also called CaPan1 Ag; CaPan1 antigens
Description: ELISA on target mucin antigen (FIG. 9). For orientation: In an ELISA, binding on a coated surface is turned into a signal by an enzyme label.

For assay [2], the target named is T2, cyclic phage-displayed peptide ACPEWWGTTC (disulfide 2-10).
T2 construct: also called cyclic peptide
T2 peptide: ACPEWWGTTC
Description: screen of phage-displayed peptides (cyclic library) after panning against hPAM4.

Positions of bridges follow the written chain, without caps; N, C: chain ends. No end group written: not given here.

B1: humanized PAM4 antibody (hPAM4 IgG) (antibody, V domains shown)
VH: QVQLQQSGAEVKKPGASVKVSCEASGYTFPSYVLHWVKQAPGQGLEWIGYINPYNDGTQYNEKFKGKATLTRDTSINTAYMELSRLRSDDTAVYYCARGFGGSYGFAYWGQGTLVTVSS
VL: DIQLTQSPSSLSASVGDRVTMTCSASSSVSSSYLYWYQQKPGKAPKLWIYSTSNLASGVPARFSGSGSGTDFTLTISSLQPEDSASYFCHQWNRYPYTFGGGTRLEIKR
For the molecule B1, in assay [1], the midpoint of the response, the EC50, lay at 1.31 nM. In addition, the binding result in assay [2] is “binds”.

As usually defined, the EC50 is the concentration needed to bring the measured effect to its halfway point. Higher therefore signals lower potency in that assay.

The values are drawn from patent US20090304580A1 (published 2009).
